Experimental data from US20130052638, “Methods for detecting DNA-binding proteins” (Agency for Science, Technology and Research, published 2013).

How the values were obtained:
[1] = target: T1, Estrogen receptor beta (ERβ) (UniProt Q92731 Q92731:1-530); experiment: competition; free competitor at 4:1 over ERβ, 360 nM ERβ, 56 mM KCl, 5 min; attributed to non-specific binding; conditions: chain copies: 2
Description: (§1) In this study, excess unmodified DNA competitor (i.e., wtERE and scrDNA, are used as strong and weak competitors, respectively) was pre-incubated with the ERβ at room temperature for 20 minutes to allow for complex formation (molar ratio of ERβ:dsDNA is 1:4), followed by the addition to the complementary mixture of v1-v2-AuNPs in 56 mM KCl, with final ERβ concentration of 360 nM. In the presence of strong competitor (wtERE), limited amount of ERβ bound to the ERE anchored on the AuNPs surface, leading to extensive particle aggregation in salt solution. […]
(§2) The aggregation state of the AuNPs was quantified using UV-Vis absorption spectrum as indicated by the shift of LSPR peak at 526 nm wavelength to a longer wavelength (e.g. 650 nm). The UV-Vis absorbance ratio at 650 nm to that at 526 nm, i.e., A650/A526 is indicative of the particle aggregation degree where a higher ratio is directly related to a larger extent of aggregation. In this study, the deviation percentage (i.e., [(X−Y)/Y]*100%) was calculated based on the difference in aggregation ratio of AuNP samples (measure as A650/A526) with competitors (denoted as X) relative to that without competitor (denoted as Y) at 5 minutes after mixing in the 56 mM KCl-containing protein binding buffer. A 9.0% of deviation was recorded for the scrambled DNA sequence (scrDNA). […]

[2] = target: T1, Estrogen receptor beta (ERβ); experiment: competition; free competitor at 4:1 over ERβ, 360 nM ERβ, 56 mM KCl, 5 min; strong competitor; conditions: chain copies: 2
Description: as §1, §2

T1 sequence (Q92731 whole entry, one chain of several): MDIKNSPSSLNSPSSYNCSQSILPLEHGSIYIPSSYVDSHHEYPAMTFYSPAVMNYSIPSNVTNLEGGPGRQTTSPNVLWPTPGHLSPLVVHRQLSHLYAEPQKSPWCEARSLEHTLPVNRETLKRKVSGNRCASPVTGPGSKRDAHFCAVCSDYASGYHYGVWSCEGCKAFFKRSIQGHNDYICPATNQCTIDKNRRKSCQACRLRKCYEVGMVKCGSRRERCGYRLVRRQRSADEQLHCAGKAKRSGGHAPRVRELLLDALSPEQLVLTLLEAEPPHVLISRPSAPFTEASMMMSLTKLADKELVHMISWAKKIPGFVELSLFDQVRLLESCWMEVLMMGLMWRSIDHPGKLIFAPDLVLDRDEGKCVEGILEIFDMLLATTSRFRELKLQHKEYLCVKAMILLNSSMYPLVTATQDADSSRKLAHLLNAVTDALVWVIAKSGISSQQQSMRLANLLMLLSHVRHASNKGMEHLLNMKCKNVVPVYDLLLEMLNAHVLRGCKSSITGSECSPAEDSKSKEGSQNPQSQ

B1: scrDNA competitor (free) (dsDNA)
DNA 1: GTCCAAAGTCAATCGCCAGCACGATGATCAAAGT
DNA 2: ACTTTGATCATCGTGCTGGCGATTGACTTTGGAC
binding signal [1]: 9 % deviation of aggregation ratio

B2: wtERE competitor (free) (dsDNA)
DNA 1: GTCCAAAGTCAGGTCACAGTGACCTGATCAAAGT
DNA 2: ACTTTGATCAGGTCACTGTGACCTGACTTTGGAC
binding signal [2]: 35 % deviation of aggregation ratio
